This note sets out measurements from article PMC4643373.

The series deals with FMRP RGG box (UniProt Q06787 527-554). The experiment in a line: EMSA.

Regarding GGGUACGGGAGGGUAAGGCUGUGGGUCGCGUG (structured_RNA) [NR2B mRNA (32 nt)], the binding result was “binds”.
